Experimental data published in publication PMC3764422, “A model of yeast glycolysis based on a consistent kinetic characterisation of all its enzymes” (Febs Letters, 2013).

What was measured:
Assay in all cases: purified protein
Format in all cases: biochemical, Saccharomyces cerevisiae
purified protein [1] = substrate: CC=O; conditions: standardised reaction buffer, 30 °C, co-substrate NADH
purified protein [2] = substrate: O=C(CO)COP(=O)(O)O; conditions: standardised reaction buffer, 30 °C, measured in-house, also reported in Mendes et al. [42]
purified protein [3] = substrate: C=C(OP(=O)(O)O)C(=O)O; conditions: standardised reaction buffer, 30 °C, co-substrate ADP

B1: Adh1p (Saccharomyces cerevisiae S288C) (protein)
chain: SIPETQKGVIFYESHGKLEYKDIPVPKPKANELLINVKYSGVCHTDLHAWHGDWPLPVKLPLVGGHEGAGVVVGMGENVKGWKIGDYAGIKWLNGSCMACEYCELGNESNCPHADLSGYTHDGSFQQYATADAVQAAHIPQGTDLAQVAPILCAGITVYKALKSANLMAGHWVAISGAAGGLGSLAVQYAKAMGYRVLGIDGGEGKEELFRSIGGEVFIDFTKEKDIVGAVLKATDGGAHGVINVSVSEAAIEASTRYVRANGTTVLVGMPAGAKCCSDVFNQVVKSISIVGSYVGNRADTREALDFFARGLVKSPIKVVGLSTLPEIYEKMEKGQIVGRYVVDTSK
notes: tagged full-length ORF, expressed in and purified from S. cerevisiae
In the case of B1, the Km (purified protein [1]) is reported as 0.462 (SEM 5.3%) mM and the kcat (purified protein [1]) is reported as 176 s⁻¹.

B2: Tpi1p (Saccharomyces cerevisiae S288C) (protein)
chain: ARTFFVGGNFKLNGSKQSIKEIVERLNTASIPENVEVVICPPATYLDYSVSLVKKPQVTVGAQNAYLKASGAFTGENSVDQIKDVGAKWVILGHSERRSYFHEDDKFIADKTKFALGQGVGVILCIGETLEEKKAGKTLDVVERQLNAVLEEVKDWTNVVVAYEPVWAIGTGLAATPEDAQDIHASIRKFLASKLGDKAASELRILYGGSANGSNAVTFKDKADVDGFLVGGASLKPEFVDIINSRN
notes: as for B1
In the case of B2, the Km (purified protein [2]) is reported as 6.45 (SEM 5%) mM.

B3: Cdc19p (Saccharomyces cerevisiae S288C) (protein)
chain: SRLERLTSLNVVAGSDLRRTSIIGTIGPKTNNPETLVALRKAGLNIVRMNFSHGSYEYHKSVIDNARKSEELYPGRPLAIALDTKGPEIRTGTTTNDVDYPIPPNHEMIFTTDDKYAKACDDKIMYVDYKNITKVISAGRIIYVDDGVLSFQVLEVVDDKTLKVKALNAGKICSHKGVNLPGTDVDLPALSEKDKEDLRFGVKNGVHMVFASFIRTANDVLTIREVLGEQGKDVKIIVKIENQQGVNNFDEILKVTDGVMVARGDLGIEIPAPEVLAVQKKLIAKSNLAGKPVICATQMLESMTYNPRPTRAEVSDVGNAILDGADCVMLSGETAKGNYPINAVTTMAETAVIAEQAIAYLPNYDDMRNCTPKPTSTTETVAASAVAAVFEQKAKAIIVLSTSGTTPRLVSKYRPNCPIILVTRCPRAARFSHLYRGVFPFVFEKEPVSDWTDDVEARINFGIEKAKEFGILKKGDTYVSIQGFKAGAGHSNTLQVSTV
notes: as for B1
B3 was tested, and the Km (purified protein [3]) was 0.281 (SEM 12%) mM and the kcat (purified protein [3]) was 20.1 s⁻¹.
